One data set has as its target T1, MATR3 fragment 1-287 (Homo sapiens, UniProt P43243 SEQ:1-287).
T1 sequence: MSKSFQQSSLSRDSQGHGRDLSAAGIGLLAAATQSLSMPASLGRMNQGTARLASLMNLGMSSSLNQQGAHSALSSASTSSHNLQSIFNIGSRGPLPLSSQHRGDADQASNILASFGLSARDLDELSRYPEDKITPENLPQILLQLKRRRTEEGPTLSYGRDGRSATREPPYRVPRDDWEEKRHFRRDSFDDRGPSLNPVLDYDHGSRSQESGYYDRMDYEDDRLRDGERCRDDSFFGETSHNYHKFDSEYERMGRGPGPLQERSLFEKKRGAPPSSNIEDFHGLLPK
The data set can be described thus: EMSA; MATR3 1-287 alone unable to bind DNA; lacks nucleic acid binding domains. The conditions noted are these: tags: GST (pGEX2tk). The protocol:
(§1) Twenty femtomoles of probes were incubated with 15 pmol of in vitro purified 6xHis DUX4 dbd and/or GST-MATR3 1-287 proteins in the presence of 1 μg of poly(dI:dC) and 5 μg of salmon sperm DNA in a buffer containing 10 mM Tris, pH 7.5, 0.1 mM EDTA, 1 mM DTT, 100 mM KCl, 3 mM MgCl2, 12% glycerol.
(§2) After 2 h incubation at RT, DNA-protein complexes were separated by electrophoresis in 8% (w/v) acrylamide gels formed in 0.5×TBE (Sigma-Aldrich) and run in the same buffer at 5 mA at 4° C. Then, the gels were transferred on a Biodyne nylon membrane (Thermo Scientific) at 380 mA for 45 min at 4° C. The membrane was crosslinked at 120 mJ/cm2 with an UV-Stratalinker and the biotin-labelled DNA was detected by chemiluminescence using the LightShift Chemiluminescent EMSA Kit (Thermo Scientific) following the manufacturer's protocol.
For orientation: Mobility shift assays separate free from complexed probe on a gel.

Data set [1] deals with DUX4 DNA-binding domain (dbd) (Homo sapiens, UniProt Q6RFH8 SEQ:1-150). The data set can be described thus: EMSA; binding inhibited by recombinant MATR3 1-287. Particulars: tags: 6xHis-GB1 (pET-GB1). The protocol:
as §1, §2

This is an account of results in patent US20220098252, “INHIBITOR OF DUX4 AND USES THEREOF” (OSPEDALE SAN RAFFAELE S.R.L., published 2022).

Chain of DUX4 DNA-binding domain (dbd) (Q6RFH8 1-150): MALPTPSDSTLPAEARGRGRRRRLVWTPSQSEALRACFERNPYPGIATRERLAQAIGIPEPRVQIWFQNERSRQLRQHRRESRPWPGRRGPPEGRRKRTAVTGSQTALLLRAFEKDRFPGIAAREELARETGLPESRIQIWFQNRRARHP

B1: FRG1 Peak 1 EMSA probe (dsDNA)
DNA 1: AATTGTAGCTATAATTCAATCATCTAAATTG
DNA 2: CAATTTAGATGATTGAATTATAGCTACAATT
For the molecule B1, the binding result in the data set with MATR3 fragment 1-287 was “no binding”; in data set [1], “binds”.
